The source of these data is US20200262918A1 (Stanford University, published 2020).

The target in this experiment is human SIRPα (human, UniProt P78324 31-373). Description: Biacore (SPR), format not stated. Background: Surface plasmon resonance follows binding to a sensor surface in real time, without labels.
Sequence of human SIRPα (P78324 31-504): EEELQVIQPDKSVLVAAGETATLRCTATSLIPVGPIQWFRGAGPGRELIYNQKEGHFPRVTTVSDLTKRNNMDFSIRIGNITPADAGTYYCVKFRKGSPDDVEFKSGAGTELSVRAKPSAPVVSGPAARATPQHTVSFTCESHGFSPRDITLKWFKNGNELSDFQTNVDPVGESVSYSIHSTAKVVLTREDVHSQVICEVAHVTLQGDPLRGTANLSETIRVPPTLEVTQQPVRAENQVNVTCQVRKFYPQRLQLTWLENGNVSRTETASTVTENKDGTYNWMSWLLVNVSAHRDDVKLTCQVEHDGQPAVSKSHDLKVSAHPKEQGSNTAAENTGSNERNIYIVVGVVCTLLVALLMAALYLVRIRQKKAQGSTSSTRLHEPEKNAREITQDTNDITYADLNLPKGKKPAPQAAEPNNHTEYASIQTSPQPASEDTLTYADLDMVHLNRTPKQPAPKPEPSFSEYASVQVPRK

B1: Humanized KWAR23 anti-SIRPα antibody (antibody, V domains shown)
VH: EVQLVQSGAEVKKPGATVKISCKVSGFNIKDYYIHWVQQAPGKGLEWIGRIDPEDGETKYAPKFQDRATITADTSTDTAYMELSSLRSEDTAVYYCARWGAYWGQGTLVTVSS
VL: QIVLTQSPPTLSLSPGERVTLTCSASSSVSSSYLYWYQQKPGQAPKLWIYSTSNLASGVPARFSGSGSGTSYTLTISSLQPEDFAVYFCHQWSSYPRTFGAGTKLEIK
notes: The phagocytosis assays used HuKwar-G1, a human IgG1 with N297A; also called HuKwar-G1; HuKWar-G1
The molecule B1 had a Kd of 1.54 nM.

B2: Mouse KWAR23 anti-SIRPα antibody (antibody, V domains shown)
VH: EVQLQQSGAELVKPGASVKLSCTASGFNIKDYYIHWVQQRTEQGLEWIGRIDPEDGETKYAPKFQDKATITADTSSNTAYLHLSSLTSEDTAVYYCARWGAYWGQGTLVTVSS
VL: QIVLTQSPAIMSASPGEKVTLTCSASSSVSSSYLYWYQQKPGSSPKLWIYSTSNLASGVPARFSGSGSGTSYSLTISSMEAEDAASYFCHQWSSYPRTFGAGTKLELK
notes: also called mouse antibody; mKWAR
The molecule B2 displayed a Kd of 1.18 nM.

The term Kd denotes the constant that tells how readily two partners part at equilibrium.
